The star is where a group is joined. FITC = O=C1OC2(c3ccc(O)cc3Oc3cc(O)ccc32)c2ccc(NC(=S)*)cc21; Ahx = NCCCCCC(=O)O
T1: full-length PPARγ with GW1929 (Homo sapiens)
T1 chain: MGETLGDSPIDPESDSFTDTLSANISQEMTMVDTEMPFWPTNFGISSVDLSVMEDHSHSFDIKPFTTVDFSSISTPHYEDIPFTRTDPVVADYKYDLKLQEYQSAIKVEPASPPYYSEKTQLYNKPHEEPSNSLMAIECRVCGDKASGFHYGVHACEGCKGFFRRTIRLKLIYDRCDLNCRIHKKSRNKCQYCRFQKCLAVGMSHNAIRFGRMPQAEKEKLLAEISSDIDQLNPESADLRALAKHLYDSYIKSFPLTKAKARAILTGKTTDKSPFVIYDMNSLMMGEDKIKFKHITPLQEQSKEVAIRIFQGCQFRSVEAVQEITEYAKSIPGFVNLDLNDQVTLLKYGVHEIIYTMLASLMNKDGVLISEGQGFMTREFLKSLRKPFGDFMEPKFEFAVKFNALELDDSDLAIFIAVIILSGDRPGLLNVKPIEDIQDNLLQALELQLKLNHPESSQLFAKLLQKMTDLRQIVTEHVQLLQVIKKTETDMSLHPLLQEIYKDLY


Legend:
[1] = target: full-length PPARγ (isoform 2), delipidated, no ligand (human) (UniProt P37231); assay: FP
[2] = target: T1, full-length PPARγ with GW1929; assay: FP; GW1929

Molecule | Kd [1] [µM] | Kd [2] [µM]
FITC-labeled NCoR1 corepressor peptide (residues 2256-2278) | 7.4 | –
{FITC-Ahx}-DPASNLGLEDIIRKALMGSFDDK-NH2 [FITC-labeled NCoR1 corepressor peptide (residues 2256-2278)] | – | 9

From PMC6224492 (2018)
